Our source for the binding result and Kd values is patent publication US20210338833A1 (MIT, published 2021).

T1: FMC63 Mimotope (G9) RLCPWSCREL
T1 construct: Parent of the alanine scan
T1 peptide: RLCPWSCREL

T2: FMC63 Mimotope Mutant RLCPWACREL
T2 construct: also called G9 X2 (Ser 6) to Ala
T2 peptide: RLCPWACREL

T3: FMC63 Mimotope Mutant RLCPWSCREA
T3 construct: also called G9 X5 (Leu 10) to Ala
T3 peptide: RLCPWSCREA

T4: FMC63 Mimotope Mutant RLCPWSCAEL
T4 construct: also called G9 X3 (Arg 8) to Ala
T4 peptide: RLCPWSCAEL

T5: FMC63 Mimotope Mutant RACPWSCREL
T5 construct: also called G9 X1 (Leu 2) to Ala
T5 peptide: RACPWSCREL

T6: FMC63 Mimotope Mutant RLCPWSCRAL
T6 construct: also called G9 X4 (Glu 9) to Ala
T6 peptide: RLCPWSCRAL

T7: FMC63 Mimotope Mutant RLCPWSAACREL
T7 construct: also called G9 with two alanines inserted between the cysteines
T7 peptide: RLCPWSAACREL

T8: FMC63 Mimotope Mutant RLCPWSACREL
T8 construct: also called G9 with one alanine inserted between the cysteines
T8 peptide: RLCPWSACREL

T9: FMC63 Mimotope (G11) RLCPWNCREL
T9 peptide: RLCPWNCREL

T10: FMC63 Mimotope (E6) RLCPWSCVPI
T10 peptide: RLCPWSCVPI

T11: FMC63 Mimotope (F12) RICPWNCKEL
T11 construct: also called F12 mimotope
T11 peptide: RICPWNCKEL

T12: FMC63 Mimotope (B7) RICPWSCMVV
T12 peptide: RICPWSCMVV

T13: FMC63 Mimotope (H11) RICPWSCREL
T13 peptide: RICPWSCREL

T14: FMC63 Mimotope (H8) RICPWACVEL
T14 peptide: RICPWACVEL

T15: FMC63 Mimotope (H1) RVCPWSCMPI
T15 construct: Not the 1D3 mimotope that is also called H1
T15 peptide: RVCPWSCMPI

T16: FMC63 Mimotope (C5) RMCPWSCYEL
T16 peptide: RMCPWSCYEL

T17: FMC63 Mimotope (C7) RLCPWACQEQ
T17 peptide: RLCPWACQEQ

T18: FMC63 Mimotope (F8) RLCPWDCREL
T18 peptide: RLCPWDCREL

T19: biotinylated F12 derivative GSGGGGSGGGGSASRICPWNCKEL (not fully specified; biotinylated on the N-terminus)
T19 construct: Free peptide loaded on a streptavidin coated plate for ELISA
T19 peptide: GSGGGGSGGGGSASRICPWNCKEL

T20: biotinylated F12 mimotope RICPWNCKEL (no flanking residues) (not fully specified (bridges); cysteine pairing not given here)
T20 construct: Free peptide loaded on a streptavidin coated plate for ELISA; also called Bio-F12; F12 without flanking residues
T20 peptide: Biotin-RICPWNCKEL

T21: biotinylated F12 derivative GGSGGGGSASRICPWNCKEL (not fully specified; biotinylated on the N-terminus)
T21 construct: Free peptide loaded on a streptavidin coated plate for ELISA
T21 peptide: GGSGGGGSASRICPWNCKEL

T22: biotinylated F12 derivative GGGSASRICPWNCKEL (not fully specified (bridges); cysteine pairing not given here)
T22 construct: Free peptide loaded on a streptavidin coated plate for ELISA
T22 peptide: Biotin-GGGSASRICPWNCKEL

T23: biotinylated F12 derivative GGGGSGGGGSGGGGSASRICPWNCKEL (not fully specified; biotinylated on the N-terminus)
T23 construct: Free peptide loaded on a streptavidin coated plate for ELISA
T23 peptide: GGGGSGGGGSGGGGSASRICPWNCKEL

T24: biotinylated F12 derivative SASRICPWNCKEL (not fully specified (bridges); cysteine pairing not given here)
T24 construct: Free peptide loaded on a streptavidin coated plate for ELISA
T24 peptide: Biotin-SASRICPWNCKEL

B1: FMC63 IgG (antibody, V domains shown)
VH: EVKLQESGPGLVAPSQSLSVTCTVSGVSLPDYGVSWIRQPPRKGLEWLGVIWGSETTYYNSALKSRLTIIKDNSKSQVFLKMNSLQTDDTAIYYCAKHYYYGGSYAMDYWGQGTSVTVSS
VL: DIQMTQTTSSLSASLGDRVTISCRASQDISKYLNWYQQKPDGTVKLLIYHTSRLHSGVPSRFSGSGSGTDYSLTISNLEQEDIATYFCQQGNTLPYTFGGGTKLEIT
notes: Murine monoclonal antibody to human CD19; also called FMC63 IgG antibody; biotinylated FMC63 IgG

The target of assay [1] is T1, FMC63 Mimotope (G9) RLCPWSCREL
As to the kind of experiment: flow cytometry of yeast clones stained with FMC63 IgG (5 µM by paragraph 811); stacked histograms, no unstained control drawn. The method, then: (§1) Specifically, a representative mimotope, […] […] To generate mutations, two complementary oligos with the codon replaced at the desired site were denatured at 95° C. and annealed by slow cooling to 25° C. (decreasing by 0.5° C./second). The annealed oligos were treated with T4 PNK (T4 Polynucleotide Kinase) to add a terminal phosphate, and then ligated into digested pCT-CON2 vector. Positive clones having the correct oligo inserted were tested and transformed into competent EBY100 yeast cells.

The target in assay [2] is T2, FMC63 Mimotope Mutant RLCPWACREL
The assay is described as above. The method, then:
as §1

Assay [3] has as its target T3, FMC63 Mimotope Mutant RLCPWSCREA
Described as above. The method, then: as §1

In assay [4] the target is T4, FMC63 Mimotope Mutant RLCPWSCAEL
The description is as above. The method, then: as §1

Assay [5] has as its target T5, FMC63 Mimotope Mutant RACPWSCREL
The assay is described as above. The method, then: as §1

The target of assay [6] is T6, FMC63 Mimotope Mutant RLCPWSCRAL
Described as above. The method, then: as §1

For assay [7], the target named is T7, FMC63 Mimotope Mutant RLCPWSAACREL
Nature of the assay: flow cytometry of yeast clones stained with FMC63 IgG; stacked histograms, no unstained control drawn. The method, then: as §1
(In general: In flow cytometry, cells or beads pass a laser one at a time.)

Assay [8] concerns the target T8, FMC63 Mimotope Mutant RLCPWSACREL
The description is as above. The method, then: as §1

The target in assay [9] is T9, FMC63 Mimotope (G11) RLCPWNCREL
Nature of the assay: flow cytometry of yeast clones titrated with biotinylated FMC63 IgG, MFI (geometric mean); axis without unit, nM by the legend paragraph 211.

The target in assay [10] is T10, FMC63 Mimotope (E6) RLCPWSCVPI
Described as above.

The target in assay [11] is T11, FMC63 Mimotope (F12) RICPWNCKEL
The description is as above.

Assay [12] concerns the target T12, FMC63 Mimotope (B7) RICPWSCMVV
Described as above.

Assay [13] has as its target T13, FMC63 Mimotope (H11) RICPWSCREL
The assay is described as above.

In assay [14] the target is T14, FMC63 Mimotope (H8) RICPWACVEL
The assay is described as above.

The target of assay [15] is T15, FMC63 Mimotope (H1) RVCPWSCMPI
The assay is described as above.

Assay [16] has as its target T16, FMC63 Mimotope (C5) RMCPWSCYEL
Described as above.

Assay [17] deals with T17, FMC63 Mimotope (C7) RLCPWACQEQ
Described as above.

The target in assay [18] is T18, FMC63 Mimotope (F8) RLCPWDCREL
The description is as above.

Assay [19] has as its target T19, biotinylated F12 derivative …. As to the kind of experiment: ELISA, biotinylated peptide on a streptavidin plate, OD(450nm) against the FMC63 IgG concentration (nM). (In general: ELISA stands for enzyme-linked immunosorbent assay.)
Assay [20] deals with T20, biotinylated F12 mimotope RICPWNCKEL …. The description is as above.
Assay [21] addresses T21, biotinylated F12 derivative …. Described as above.
Assay [22] addresses T22, biotinylated F12 derivative …. The assay is described as above.
The target in assay [23] is T23, biotinylated F12 derivative …. Described as above.
For assay [24], the target named is T24, biotinylated F12 derivative …. Described as above.
The assay “FMC63 IgG” deals with B1. As to the kind of experiment: ELISA with FMC63 IgG; ELISA with FMC63 IgG (FIG. 7); micromolar range.

Bridge positions count the residues as written; N and C are the ends. Ends that are not written are not given here. * marks the point of attachment. Biotin = O=C1N[C@H]2[C@H](CS[C@H]2CCCCC(=O)*)N1

As to B1, the binding result in assay [1], in assay [2], in [3], in assay [4], in assay [5] and in [6] was “binds” throughout. Also, the binding result in assay [7] is reported as “no binding”; in assay [8] it was “no binding”; in assay [9], “binds”; in assay [10], “binds”; in assay [11] it was “binds”; in [12] it was “binds”. The binding result in assay [13], in assay [14], in assay [15], in assay [16], in [17] and in assay [18] was “binds” in each case. Further, the binding result in assay [19], in assay [20], in assay [21], in assay [22], in assay [23] and in assay [24] was “binds” throughout.
Usually Kd stands for a measure of binding affinity in units of concentration. A high value points to a looser complex. Regarding RHCPWNCSLL (disulfide 3-7 (inferred), Aga2p-HA-(G4S)3-AS-peptide, cf) [FMC63 Mimotope (A1) RHCPWNCSLL], the Kd in the assay with FMC63 IgG was roughly 1400 nM.
